The source of these data is patent US9322000B2, “Methanol dehydrogenase enzymes from Bacillus” (Sinvent AS, priority 2012, dated 2016).

“Also recorded” adds a separate entry of the source.

Data set [1] is described as follows: Formaldehyde reductase assay of purified MDH proteins. Conditions: 45° C., formaldehyde reductase activity; for Km: read-out: Km, variable substrate Formaldehyde. The class given is biochemical. As to the method: Alcohol dehydrogenase activities were measured spectrophotometrically essentially as described previously (Hektor, Kloosterman et al. (2002) Chem 277(49): 46966-46973) and the reaction mixture contained: 100 mM Glycine-KOH pH 9.5 (unless otherwise stated), 5 mM MgSO4, 0.5 mM NAD^+ and 500 mM alcohol (methanol, ethanol, propanol, 1,3-propanediol, or butanol). NAD^+ was substituted with equal concentrations of NADP^+, FMN^+, and FAD^+, when indicated. The reaction mixture for measurements of formaldehyde reductase activity contained: 50 mM Potassium-phosphate buffer pH=6.7, 0.15 mM NADH, 1 mM DTT and 11.6 mM (0.1-116 mM) formaldehyde. The assay components were mixed in the cuvette and pre-warmed to 45° C., unless otherwise stated. The reactions were started by addition of 5-40 μg of the purified MDH proteins, and the production of NADH was monitored at 340 nm for 4 minutes. One unit of MDH activity was defined as the amount of enzyme needed to produce 1 μmol NADH per minute under the conditions described above. Purified Act (0.1-40 μg) or NudF (20 μg) proteins were added to the reaction mixtures as indicated in the text.
The purified MDH and Act proteins (20 μg) were used in the kinetic experiments performing the methanol dehydrogenase and the formaldehyde dehydrogenase assays essentially as described above. […] For determination of the Km for NAD^+ (Km,NAD+) and Vmax, the methanol concentration was kept constant at a saturating level (500 mM), while the concentration of NAD^+ was varied (5-1000 μM). […] Act (20 μg) was added to the reaction mixtures for determination of Kμ,MεOH and Vmax values in the presence of this activator, as indicated in the text. In general, the slopes of activity versus time were linear in the measured period (data not shown). Km and Vmax values were calculated by using nonlinear regression with the Microsoft Excel solver-tool to fit the measured data to the Michaelis-Menten equation, as described previously (Jakobsen et al., (2009) Appl Environ Microbiol 75(3): 652-661). The values obtained from the regression were then compared to the values obtained from Lineweaver-Burk and Hanes-Woolf plots to ensure that the global minimum, not a local minimum, had been found.

The nature of data set [2]: Heat stability: pre-incubation of purified MDHs at 45° C. or 60° C. prior to the enzyme assay. The class given is biochemical. Conditions: preincubation at 60° C.; compared to the remaining MDHs. As to the method: FIG. 5. (A) Temperature stability of MGA3 Mdh, Mdh2 and Mdh3 was tested in vitro. Enzymes were incubated at 45° C. or at 60° C. prior to the enzyme assay. (B) Temperature stability of PB1 Mdh, Mdh1 and Mdh2 was tested in vitro. Enzymes were incubated at 45° C. or at 60° C. prior to the enzyme assay.
The heat stability of the six MDHs was tested by pre-incubation of the proteins at 45° C. and 60° C. and samples were taken at different time points for enzyme assays. As expected, all enzymes retained essentially all catalytic activity upon preincubations at 45° C. (FIG. 5). […] A selection of the experiments was repeated in the presence of equal amounts of purified Act, and this had no effect on temperature stability for any of the MDHs (data not shown).

Data set [3] in a line: In vivo Mdh activity in cell suspensions of recombinant E. coli (formaldehyde accumulating in supernatant). The class given is cell-based. Conditions: E. coli cell suspension. An excerpt:
The genes coding for Mdh and the Mdh activator protein Act were amplified from pET21a-plasmids harboring genes from B. methanolicus strains MGA3 (mdh-MGA3, mdh2-MGA3, mdh3-MGA3 and act-MGA3) and PB1 (mdh-PB1, mdh1-PB1 and mdh2-PB1). The genes were then cloned either into the pSEVA424 plasmid (mdh genes) or in the pSEVA131 plasmid (act gene). For cloning of mdh-MGA3, mdh-PB1, mdh1-PB1 and act-MGA3, EcoRI and HindIII restrictions sites were used, while mdh2-MGA3, mdh2-PB1 and mdh3-MGA3 were cloned by using EcoRI and PstI restriction sites. The resulting expression vectors were transformed into electrocompetent wt E. coli K-12 (BW25113) and into E. coli K-12 (BW25113) with a deleted frmA gene.
Expression Experiments For expression experiments, the cells were cultivated in either Luria-Bertani (LB) medium for in vitro assays or in M9 medium for in vivo assays both containing 20 μg/ml streptomycin for pSEVA424. When Act was co-expressed the medium was supplemented with 100 μg/ml ampicillin. Expression was induced when cells reached OD 0.5 (for in vitro tests) or OD 1 (for in vivo tests) by adding 0.1 mM IPTG (final concentration) for 6 hours. Cells were then harvested by centrifugation. For in vitro assays, crude cell extract was prepared by lysing the cells in a French press following ultracentrifugation. Alternatively, cells were resuspended in M9-medium without glucose for in vivo activity measurements. Enzyme Assays
In vivo measurements of Mdh activity: For determination of Mdh activity in cell suspensions, cells were harvested after IPTG induction, washed and resuspended in M9-medium without glucose and IPTG. OD600 was set to 1 for normalization. […] The assay was started by addition of 1 M methanol and subsequent measurement of accumulating formaldehyde in the supernatant resulting from the methanol dehydrogenase catalyzed oxidation of methanol. The calculated activities were based on the assumption that 1 l of an OD1 culture contains 0.3 g biomass of which 50% is protein.

Data set [4] can be described thus: Substrate specificity of purified MDH proteins on alternative alcohols. It counts as biochemical. Conditions: all alternative alcohol substrates. As for the experimental part:
FIG. 3. Catalytic activities of purified Mdh (black), Mdh2 (dark grey) and Mdh3 (light grey) on various alcohols (200 mM) tested in vitro. (A) Substrate specificity was analysed for MDHs from B. methanolicus MGA3 in vitro. Alcohol substrates were used at concentrations of 500 mM except for pentanol (300 mM) and hexanol (50 mM). The data were calculated from the mean value from two experiments which were done in triplicate. (B) Substrate specificity for MDHs from B. methanolicus PB1 was analysed in vitro. Alcohol substrates were used at concentrations of 500 mM except for pentanol (300 mM) and hexanol (50 mM). The data were calculated from the mean value from two experiments which were done in triplicate.
Alcohol dehydrogenase activities were measured spectrophotometrically essentially as described previously (Hektor, Kloosterman et al. (2002) Chem 277(49): 46966-46973) and the reaction mixture contained: 100 mM Glycine-KOH pH 9.5 (unless otherwise stated), 5 mM MgSO4, 0.5 mM NAD^+ and 500 mM alcohol (methanol, ethanol, propanol, 1,3-propanediol, or butanol). NAD^+ was substituted with equal concentrations of NADP^+, FMN^+, and FAD^+, when indicated. […] The reactions were started by addition of 5-40 μg of the purified MDH proteins, and the production of NADH was monitored at 340 nm for 4 minutes. […]

B1: Mdh-MGA3: previously reported plasmid pBM19-encoded NAD-dependent methanol dehydrogenase of B. methanolicus MGA3, SEQ ID NO. 8 (protein)
chain: MTTNFFIPPASVIGRGAVKEVGTRLKQIGAKKALIVTDAFLHSTGLSEEVAKNIREAGVDVAIFPKAQPDPADTQVHEGVDVFKQENCDSLVSIGGGSSHDTAKAIGLVAANGGRINDYQGVNSVEKPVVPVVAITTTAGTGSETTSLAVITDSARKVKMPVIDEKITPTVAIVDPELMVKKPAGLTIATGMDALSHAIEAYVAKGATPVTDAFAIQAMKLINEYLPKAVANGEDIEAREKMAYAQYMAGVAFNNGGLGLVHSISHQVGGVYKLQHGICNSVNMPHVCAFNLIAKTERFAHIAELLGENVAGLSTAAAAERAIVALERINKSFGIPSGYAEMGVKEEDIELLAKNAYEDVCTQSNPRVPTVQDIAQIIKNAM
modifications: Bacillus methanolicus MGA3
For the molecule B1, in data set [1], the “Vmax, variable substrate Formaldehyde” value is reported as 1.4 U/mg. For the same molecule, in data set [1], the Michaelis constant (Km) was 1 mM. In data set [2], the “temperature stability in vitro (in words)” value is listed as “only moderate negative effects”. In addition, the In vivo activity in data set [3] (37° C., +Act) turned out to be 1 mU/mg; in data set [3] (37° C., −Act), 1 mU/mg; in data set [3] (42° C., +Act), 1 mU/mg; in data set [3] (42° C., −Act), 3 mU/mg.

B2: Mdh3-MGA3: NAD-dependent methanol dehydrogenase encoded by chromosomal gene mdh3 of B. methanolicus MGA3, SEQ ID NO. 4 (protein)
chain: MKNTQSAFYMPSVNLFGAGSVNEVGTRLAGLGVKKALLVTDAGLHSLGLSEKIAGIIREAGVEVAIFPKAEPNPTDKNVAEGLEAYNAENCDSIVTLGGGSSHDAGKAIALVAANGGTIHDYEGVDVSKKPMVPLIAINTTAGTGSELTKFTIITDTERKVKMAIVDKHVTPTLSINDPELMVGMPPSLTAATGLDALTHAIEAYVSTGATPITDALAIQAIKIISKYLPRAVANGKDIEAREQMAFAQSLAGMAFNNAGLGYVHAIAHQLGGFYNFPHGVCNAILLPHVCRFNLISKVERYAEIAAFLGENVDGLSTYEAAEKAIKAIERMARDLNIPKGFKELGAKEEDIETLAKNAMNDACALTNPRKPKLEEVIQIIKNAM
modifications: Bacillus methanolicus MGA3
B2: the “Vmax, variable substrate Formaldehyde” value in data set [1] is on record as 5 U/mg. For the same molecule, the Michaelis-Menten constant (Km) in data set [1] amounted to 15 mM. Besides, the “catalytic activity on alternative alcohols compared with the remaining MDHs” value in data set [4] is recorded as “significantly higher catalytic activity than the remaining enzymes”. Moreover, in data set [2], the “temperature stability in vitro (in words)” value is “Higher Temperature Stabilities; also recorded: improved thermostability”. Moreover, the In vivo activity in data set [3] (37° C., +Act) turned out to be 11 mU/mg; in data set [3] (37° C., −Act), 24 mU/mg; in data set [3] (42° C., +Act), 24 mU/mg; in data set [3] (42° C., −Act), 31 mU/mg.

B3: Mdh2-MGA3: NAD-dependent methanol dehydrogenase encoded by chromosomal gene mdh2 of B. methanolicus MGA3, SEQ ID NO. 2 (protein)
chain: MTNTQSAFFMPSVNLFGAGSVNEVGTRLADLGVKKALLVTDAGLHGLGLSEKISSIIRAAGVEVSIFPKAEPNPTDKNVAEGLEAYNAENCDSIVTLGGGSSHDAGKAIALVAANGGKIHDYEGVDVSKEPMVPLIAINTTAGTGSELTKFTIITDTERKVKMAIVDKHVTPTLSINDPELMVGMPPSLTAATGLDALTHAIEAYVSTGATPITDALAIQAIKIISKYLPRAVANGKDIEAREQMAFAQSLAGMAFNNAGLGYVHAIAHQLGGFYNFPHGVCNAVLLPYVCRFNLISKVERYAEIAAFLGENVDGLSTYDAAEKAIKAIERMAKDLNIPKGFKELGAKEEDIETLAKNAMKDACALTNPRKPKLEEVIQIIKNAM
modifications: Bacillus methanolicus MGA3
For the molecule B3, in data set [1], the “Vmax, variable substrate Formaldehyde” value stood at 1.5 U/mg. In addition, the Km in data set [1] stood at 5 mM. Moreover, the In vivo activity is 9 mU/mg in data set [3] (37° C., +Act); 32 mU/mg in data set [3] (37° C., −Act); 11.3 mU/mg in data set [3] (42° C., +Act); 45 mU/mg in data set [3] (42° C., −Act).
